Source: patent US20240199696A1, “AGENTS FOR MANUFACTURE OF CO-ASSEMBLING PEPTIDES” (University of Florida Research Foundation, Incorporated, priority 2021, published 2024)
One block for each molecule: values may come before it.

B3: mCATCH(+) peptide, Ac-QQKPKPKPKQQ-Am (peptide)
peptide: Ac-QQKPKPKPKQQ-NH2
notes: Mutant of CATCH(+) with proline in place of the phenylalanine residues; also called mutant CATCH(4+); mCATCH (4+)

Columns and labels:
[1] = biological target: CATCH(+) peptide, Ac-…-Am; assay: fluorescence microscopy of binary mixtures (FIG. 33A: 0.75 µM CATCH(+))
[2] = biological target: T1, mCATCH(-) peptide, Ac-EQEPEPEPEQE-Am; assay: ThT fluorimetry, equimolar mixture in 1xPBS
T1 construct: Mutant of CATCH(-) with proline in place of the phenylalanine residues
T1 peptide: Ac-EQEPEPEPEQE-NH2
Description: (§1) Thioflavin T (ThT) Assay. A ThT stock solution containing 0.8 mg/mL of thioflavin T (Acros) in 1× phosphate-buffered saline (PBS) (137 mM NaCl, 2.7 mM KCl, 10 mM Na₂HPO₄ and 1.8 mM KH₂PO₄, pH 7.4) was filtered through a 0.22 μm syringe filter (Millex), and further diluted 1:10 with 1×PBS to create a working solution. Peptide samples were mixed with the ThT working solution at a 1:10 (v/v) ratio, added to a black 96-well plate (Corning), and analyzed with a Molecular Devices SpectraMax M3 spectrophotometer (excitation 450, emission 482 nm). All samples were run in triplicate, with the mean and standard deviation of these samples reported.

[3] = biological target: the molecule itself; assay: ThT fluorimetry, TEM, circular dichroism and fluorescence microscopy of the peptide alone
[4] = biological target: B3; assay: ThT fluorimetry, equimolar mixture in 1xPBS
Description: as §1

[5] = biological target: T1, mCATCH(-) peptide, Ac-EQEPEPEPEQE-Am; assay: ThT fluorimetry, kinetic analysis

Molecule: CATCH(-)GFP, recombinant fusion of CATCH(-) and superfolder green fluorescent protein
concentration below which only diffuse fluorescence (no microparticles) was observed [1]: < 7.5 µM

Molecule: B3
binding result [5]: no binding

Now from value to molecule, other results behind:

binding result [2]: no binding
B1: CATCH(+) peptide, Ac-QQKFKFKFKQQ-Am (peptide)
peptide: Ac-QQKFKFKFKQQ-NH2
notes: Synthetic cationic variant of Q11; also called CATCH (4+); CATCH(4+)
binding result [3]: no binding

binding result [4]: no binding
B2: CATCH(-) peptide, Ac-EQEFEFEFEQE-Am (peptide)
peptide: Ac-EQEFEFEFEQE-NH2
notes: Synthetic anionic variant of Q11; also called CATCH (6-); CATCH(6-)
binding result [3]: no binding
